Results: patent US20250304700A1, “ANTI-BLOOD DENDRITIC CELL ANTIGEN 2 ANTIBODIES AND USES THEREOF” (Biogen MA Inc., priority 2012, published 2025)
Residue numbers refer to the chain shown, from its start.

Columns and labels:
[1] = test system: CD62L on the surface of human pDCs; assay: CD62L surface expression on pDCs by flow cytometry; type: cell-based; settings: PBMC pre-treated 30 minutes, then 10 μg/mL BIIB059 for 1 hour
Experimental: The MFI of CD62L was determined by gating on pDCs as defined by CD14−, CD20−, HLA-DR+ and CD123+.
Metalloproteinase are known to induce CD62L shedding from the surface of immune cells. […] The surface expression of CD62L was assayed by flow cytometry. GM6001 inhibited the BIIB059-mediated down-modulation CD62L in a dose dependent manner (FIG. 45).

surface human BDCA2 = target: T1, surface human BDCA2 (Homo sapiens, UniProt Q8WTT0); assay: Direct binding dilution titration FACS on surface human BDCA2; settings: transfected cells co-expressing BDCA2 and FcεRIγ
T1 construct: stably transfected DG44 CHO cells co-expressing full-length BDCA2 and FcεRIγcDNAs (human or cynomolgus monkey); expressed in transfected cells
T1 sequence (Q8WTT0 1-213): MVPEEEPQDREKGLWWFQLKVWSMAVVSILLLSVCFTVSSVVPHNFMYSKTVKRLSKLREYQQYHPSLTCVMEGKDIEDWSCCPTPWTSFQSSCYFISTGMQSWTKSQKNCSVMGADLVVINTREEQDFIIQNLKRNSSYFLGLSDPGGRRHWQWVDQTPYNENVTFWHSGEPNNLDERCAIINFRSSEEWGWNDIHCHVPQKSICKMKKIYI
T1 sequence (P30273 19-86 partner): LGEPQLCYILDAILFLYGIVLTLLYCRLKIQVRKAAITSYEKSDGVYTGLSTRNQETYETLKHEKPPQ
Experimental: Expression vectors (ch24F4 heavy chain vectors pYL670 or pYL672 and ch24F4 light chain vector pYL671) were co-transfected into 293-EBNA cells and transfected cells were tested for antibody secretion and specificity (empty vector- and a molecularly cloned irrelevant mAb vector-transfected cells served as controls). […] Direct FACS binding to surface human BDCA2 confirmed the specificity of ch24F4. The EC50 binding of both variants of ch24F4 was equivalent to that of the murine 24F4 mAb by direct binding to surface expressed human BDCA2 by dilution titration FACS assay. Stable CHO cell lines secreting ch24F4-huIgG1, kappa mAb and agly ch24F4-huIgG4/G1 hybrid kappa mAb were produced by co-transfection with pYL672/pYL671 and pYL670/pYL671, respectively.
Site-directed mutagenesis was performed using Agilent's QuikChange II mutagenesis kit following the manufacturer's recommended protocol. The C95S variant was constructed using the mutagenic primer 5′ GCAACCTATTACTGTCAACAAAGTAATGAGGATCCTCGGAC 3′ (SEQ ID NO: 38) and its reverse complement, which introduced a new HincII site, producing plasmid pEAG2678. The C95T variant was constructed using the mutagenic primer 5′ CAACCTATTACTGTCAGCAAACTAATGAAGATCCTCGGACGTTCG 3′ (SEQ ID NO: 39) and its reverse complement, which removed a BamHI site, producing plasmid pEAG2679. […]

human BDCA2 ectodomain = target: T2, human BDCA2 ectodomain (Homo sapiens, UniProt Q8WTT0); assay: Octet binding of mAbs on anti-human Fc tips to monomeric huBDCA2; settings: Example 5, conditioned medium, hu24F4 variants
T2 construct: huBDCA2 ectodomain: residues 257-425 above (underlined); murine IgG2a Fc (with G4S linker) (N, cleaved yes); made in house
T2 sequence (Q8WTT0 45-213): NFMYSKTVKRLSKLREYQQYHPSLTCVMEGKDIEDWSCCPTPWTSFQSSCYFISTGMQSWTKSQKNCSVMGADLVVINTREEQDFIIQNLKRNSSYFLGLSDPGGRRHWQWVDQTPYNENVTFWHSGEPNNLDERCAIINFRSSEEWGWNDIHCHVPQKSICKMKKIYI
Experimental: Site-directed mutagenesis was performed using Agilent's QuikChange II mutagenesis kit following the manufacturer's recommended protocol. The C95S variant was constructed using the mutagenic primer 5′ GCAACCTATTACTGTCAACAAAGTAATGAGGATCCTCGGAC 3′ (SEQ ID NO: 38) and its reverse complement, which introduced a new HincII site, producing plasmid pEAG2678. The C95T variant was constructed using the mutagenic primer 5′ CAACCTATTACTGTCAGCAAACTAATGAAGATCCTCGGACGTTCG 3′ (SEQ ID NO: 39) and its reverse complement, which removed a BamHI site, producing plasmid pEAG2679. Mutated plasmids were identified by screening for the introduced restriction site changes. The full-length light chain cDNA sequences in the resultant plasmids were confirmed by DNA sequencing. Wildtype ch24F4 and the C95S and C95T variant mAbs were expressed transiently in 293E cells by co-transfection of pYL672 and pYL671, pEAG2678 or pEAG2679. Conditioned medium was harvested at 2 days post-transfection. Titers (assayed by Octet on anti-human Fc tips) of both variants were similar to that of wildtype ch24F4, and Western blots of nonreducing SDS-PAGE indicated no gross aggregation or obvious clipping relative to wildtype ch24F4 mAb. […] Conditioned medium containing ch24F4 and the C95 variant mAbs was assayed by Octet for binding to human BDCA2 ectodomain. Antibodies from conditioned medium from transiently transfected cells were bound to anti-human Fc tips, then monomeric huBDCA2 was flowed over the Octet tips, to examine binding and dissociation.
Conditioned medium containing ch24F4 and all hu24F4 variant mAbs was assayed by Octet for binding to human BDCA2 ectodomain. The monomeric huBDCA2 ectodomain was prepared by proteolytic cleavage from the purified muIgG2a Fc-huBDCA2 fusion protein (relevant plasmid: pEAG2423). Antibodies from conditioned medium from transiently transfected cells were bound to anti-human Fc tips, and then monomeric huBDCA2 was flowed over the Octet tips, to examine binding and dissociation.
To explore the possibility of enhancing hu24F4 affinity by substitution at the position of the 24F4 version L1 CDR L3 unpaired cysteine (C95S in hu24F4 light chain expression vector pYL740), a number of version L1 variants were constructed by site-directed mutagenesis. Backmutation to the unpaired cysteine, i.e., S95C, was constructed by site-directed mutagenesis producing plasmid pYL749. Variants S95T, S95A, and S95V were constructed by site-directed mutagenesis producing plasmids pYL750, pYL751, and pYL752, respectively. The full-length light chain cDNA sequences in the resultant plasmids were confirmed by DNA sequencing. C95 variant hu24F4 mAbs were expressed transiently in 293E cells by co-transfection of hu24F4 H4 heavy chain pYL746 or hu24F4 H5 heavy chain pYL747 with hu24F4 L1 variant light chains C95S pYL740, S95C pYL749, S95T pYL750, S95A pYL751 or S95V pYL752 plasmids. Conditioned medium was harvested at 2 days post-transfection. Titers (assayed by Octet on anti-human Fc tips) of all variants were similar, and Western blots of nonreducing SDS-PAGE indicated no gross aggregation or obvious clipping. Conditioned medium containing the C95 variant mAbs was assayed by Octet for binding to human BDCA2 ectodomain. Antibodies from conditioned medium from transiently transfected cells were bound to anti-human Fc tips, then monomeric huBDCA2 was flowed over the Octet tips, to examine binding and dissociation. C95A variants had the slowest off-rates.

For `CNC(=O)[C@H](Cc1c[nH]c2ccccc12)NC(=O)[C@@H](CC(=O)NO)CC(C)C` [GM6001, reference compound], which “BIIB059-mediated down-modulation of CD62L” value [1] is on record?
The value was “inhibited”.

B1: H5/L1: hu24F4 variant, heavy chain version H5 (SEQ ID NO: 49), light chain version L1 (antibody, V domains shown)
VH: DVQLVQSGGGLVKPGGSLRLSCAASGFTFSTYTMSWVRQAPGKGLEWVATISPGDSFGYYYPDSVQGRFTISRDNAKNSLYLQMNRLRAEDTAVYYCTRDIYYNYGAWFAYWGRGTLVTVSS
VL: DIQLTQSPSSLSASVGDRVTITCKASQSVDYDGDSYMNWYQQKPGKAPKLLIYAASTLESGVPSRFSGSGSGTDFTLTISSLQPEDFATYYCQQSNEDPRTFGQGTKVEIK
For B1, which “direct binding to surface human BDCA2, in words” value (surface human BDCA2) is on record?
The value was ““best” variants”.

B2: H6/L0: hu24F4 variant, heavy chain version H6 (SEQ ID NO: 52), light chain version L0 (SEQ ID NO: 54) (antibody, V domains shown)
VH: B1 VH with Q6E, P53G, D55N, S56N, F57Y, Y60S, Q66K, R86S, R114Q
VL: B1 VL with D1A
Which results are given for B2?
kdis (human BDCA2 ectodomain): 0.00137 s⁻¹; kon (human BDCA2 ectodomain): 273000 M⁻¹ s⁻¹

B3: H0/L1: hu24F4 variant, heavy chain version H0 (SEQ ID NO: 40), light chain version L1 (SEQ ID NO: 56) (antibody, V domains shown)
VH: EVQLVESGGGLVKPGGSLRLSCAASGFTFSTYTMSWVRQAPGKGLEWVSAISGSGGSTYYADSVKGRFTISRDNAKNSLYLQMNSLRAEDTAVYYCARDIYYNYGAWFAYWGQGTLVTVSS
VL: B1 VL
Which results are given for B3?
kdis (human BDCA2 ectodomain): 9.5e-06 s⁻¹; kon (human BDCA2 ectodomain): 100000 M⁻¹ s⁻¹

B4: H1/L1: hu24F4 variant, heavy chain version H1 (SEQ ID NO: 42), light chain version L1 (antibody, V domains shown)
VH: B3 VH with A50T, G53P, S54G, G55D, G56S, S57F, T58G, A61P
VL: B1 VL
With B4 as the molecule, how does the “kdis” value (human BDCA2 ectodomain) read?
The value was 5.03e-06 s⁻¹.

What about the “kon” value (human BDCA2 ectodomain) of the same molecule?
The value was 100000 M⁻¹ s⁻¹.

B5: H2/L1: hu24F4 variant, heavy chain version H2 (SEQ ID NO: 44), light chain version L1 (antibody, V domains shown)
VH: EVQLVESGGGLVKPGGSLRLSCAASGFTFSTYTMSWVRQAPGKGLEWVSTISPGDSSTIYYADSVKGRFTISRDNAKNSLYLQMNSLRAEDTAVYYCARDIYYNYGAWFAYWGQGTLVTVSS
VL: B1 VL
B5 was tested. Which “kdis” value (human BDCA2 ectodomain) did it give?
Its value is 3.35e-06 s⁻¹.

What about the “kon” value (human BDCA2 ectodomain) of the same molecule?
The value was 100000 M⁻¹ s⁻¹.

B6: H3/L1: hu24F4 variant, heavy chain version H3 (SEQ ID NO: 46), light chain version L1 (antibody, V domains shown)
VH: B5 VH with S57F, T58G, I59Y, A62P, K66Q
VL: B1 VL
B6 was tested. Which “kdis” value (human BDCA2 ectodomain) did it give?
The value was 0.00586 s⁻¹.

And the “kon” value (human BDCA2 ectodomain)?
Its value is 452000 M⁻¹ s⁻¹.
